Assay results published in patent US20150344565A1.
Values joined by “and” are separate entries in the source; they are usually repeats but may differ in a detail not shown here. Equal entries are not always repeated.

How the values were obtained:
[1] = biological target: Glycosylated recombinant human GM-CSF expressed from human 293 cells (human) (UniProt P04141); experiment: SPR (Biacore 3000) at 37 °C, antibody captured on anti-human F(ab')2, GM-CSF as analyte, 1:1 global fit
[2] = biological target: Glycosylated recombinant human GM-CSF expressed from human 293 cells (human) (UniProt P04141); experiment: ELISA on GM-CSF-coated wells, glycosylated GM-CSF, exp 1
[3] = biological target: Non-glycosylated recombinant human GM-CSF expressed in E. coli (human) (UniProt P04141); experiment: ELISA on GM-CSF-coated wells, non-glycosylated GM-CSF, exp 2
[4] = biological target: Non-glycosylated recombinant human GM-CSF expressed in E. coli (human) (UniProt P04141); experiment: ELISA on GM-CSF-coated wells, non-glycosylated GM-CSF, exp 1
[5] = biological target: Non-glycosylated recombinant human GM-CSF expressed in E. coli (human) (UniProt P04141); experiment: cell-based or functional assay

Ab2, chimeric IgG1k antibody having variable regions from the mouse antibody LMM102
Kd [1]: 0.0305 nM | koff [1]: 2.2e-05 s⁻¹ | kon [1]: 720000 M⁻¹ s⁻¹ | EC50 [2]: 0.387 nM | EC50 [3]: 0.433 nM | EC50 [4]: 0.4 nM | IC50 for inhibition of GM-CSF induced IL-8 expression (U937 cells), experiment C [5]: 2.2 nM and 343 ng/ml
